T1: ARHGEF11, O15085
T1 sequence (O15085 42-136, limits assumed, looked up): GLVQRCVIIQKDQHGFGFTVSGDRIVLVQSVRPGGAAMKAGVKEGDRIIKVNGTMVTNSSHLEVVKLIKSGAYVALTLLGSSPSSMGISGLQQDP

T2: APBA2_1, Q99767
T2 sequence (Q99767 563-664, limits assumed, looked up): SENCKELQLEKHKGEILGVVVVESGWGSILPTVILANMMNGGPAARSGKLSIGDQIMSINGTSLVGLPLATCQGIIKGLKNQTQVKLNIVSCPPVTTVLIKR

T3: NHERF3_4, Q5T2W1
T3 sequence (Q5T2W1 373-468, limits assumed, looked up): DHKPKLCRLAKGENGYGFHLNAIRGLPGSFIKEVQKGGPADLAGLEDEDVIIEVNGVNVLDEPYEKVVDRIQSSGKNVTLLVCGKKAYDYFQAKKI

T4: SNTB1, Q13884
T4 sequence (Q13884 107-205, limits assumed, looked up): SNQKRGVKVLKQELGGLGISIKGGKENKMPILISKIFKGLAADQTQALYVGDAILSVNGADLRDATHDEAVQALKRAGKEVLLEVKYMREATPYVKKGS

T5: LNX2_3, Q8N448
T5 sequence (Q8N448 463-564, limits assumed, looked up): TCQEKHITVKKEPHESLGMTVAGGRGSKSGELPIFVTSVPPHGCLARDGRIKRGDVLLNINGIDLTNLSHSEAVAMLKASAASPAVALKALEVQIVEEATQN

T6: MPP6, Q9NZW5
T6 sequence (Q9NZW5 125-219, limits assumed, looked up): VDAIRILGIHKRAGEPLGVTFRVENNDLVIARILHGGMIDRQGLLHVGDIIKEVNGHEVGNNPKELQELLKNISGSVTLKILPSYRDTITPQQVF

T7: MPP2, Q14168
T7 sequence (Q14168 180-250, limits assumed, looked up): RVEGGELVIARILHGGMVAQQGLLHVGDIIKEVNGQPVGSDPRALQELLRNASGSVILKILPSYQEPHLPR

T8: DLG3_3, Q92796
T8 sequence (Q92796 374-475, limits assumed, looked up): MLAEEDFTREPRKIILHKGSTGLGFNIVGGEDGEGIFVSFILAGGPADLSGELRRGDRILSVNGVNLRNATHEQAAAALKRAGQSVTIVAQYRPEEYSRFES

T9: GRIP1_7, Q9Y3R0
T9 sequence (Q9Y3R0 999-1096, limits assumed, looked up): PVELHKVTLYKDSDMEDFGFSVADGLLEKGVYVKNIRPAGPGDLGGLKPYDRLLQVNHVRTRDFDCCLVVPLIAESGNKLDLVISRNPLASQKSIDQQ

T10: GRIP1_2, Q9Y3R0
T10 sequence (Q9Y3R0 145-248, limits assumed, looked up): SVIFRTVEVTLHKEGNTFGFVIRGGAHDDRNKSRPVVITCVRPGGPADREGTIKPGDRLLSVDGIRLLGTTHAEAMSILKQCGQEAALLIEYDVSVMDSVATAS

T11: GRIP1_3, Q9Y3R0
T11 sequence (Q9Y3R0 247-346, limits assumed, looked up): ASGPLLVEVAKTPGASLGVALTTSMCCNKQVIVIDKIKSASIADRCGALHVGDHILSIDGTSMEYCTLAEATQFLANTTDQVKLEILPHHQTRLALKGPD

T12: APBA2_2, Q99767
T12 sequence (Q99767 654-744, limits assumed, looked up): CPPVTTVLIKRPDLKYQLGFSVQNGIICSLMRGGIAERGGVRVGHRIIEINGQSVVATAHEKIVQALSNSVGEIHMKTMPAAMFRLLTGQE

T13: DFNB31_1, Q9P202
T13 sequence (Q9P202 135-233, limits assumed, looked up): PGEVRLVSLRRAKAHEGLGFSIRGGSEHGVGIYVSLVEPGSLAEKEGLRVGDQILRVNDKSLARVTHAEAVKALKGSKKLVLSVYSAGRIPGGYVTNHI

B1: NECTIN1, Q15223 (peptide)
chain: SFISKKEWYV
B2: SLCO1A2, P46721 (peptide)
chain: LKDDELKTKL

Target: CASK, O14936
Assay: holdup assay
Set-up: key: below the threshold = too weak to quantify, mostly under pKd 3.1 to 4
Conditions: plain residues with an end cap or a label only (N-terminal biotin on a linker: ado-ado)

Chain of CASK, O14936 (O14936 487-570): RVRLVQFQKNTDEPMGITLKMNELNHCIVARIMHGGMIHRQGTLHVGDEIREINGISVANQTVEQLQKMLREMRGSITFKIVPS

| pKd | Binder |
| --- | --- |
| below the threshold | B1 |
| below the threshold | B2 |

Target: T1, ARHGEF11, O15085
Assay: holdup assay
Set-up: key: below the threshold = too weak to quantify, mostly under pKd 3.1 to 4
Conditions: plain residues with an end cap or a label only (N-terminal biotin on a linker: ado-ado)

| pKd | Binder |
| --- | --- |
| 4.41 | B1 |
| 3.98 | B2 |

Target: T2, APBA2_1, Q99767
Assay: holdup assay
Set-up: key: below the threshold = too weak to quantify, mostly under pKd 3.1 to 4
Conditions: plain residues with an end cap or a label only (N-terminal biotin on a linker: ado-ado)

| pKd | Binder |
| --- | --- |
| below the threshold | B1 |
| below the threshold | B2 |

Target: NOS1, P29475
Assay: holdup assay
Set-up: key: below the threshold = too weak to quantify, mostly under pKd 3.1 to 4
Conditions: plain residues with an end cap or a label only (N-terminal biotin on a linker: ado-ado)

Chain of NOS1, P29475 (P29475 9-101): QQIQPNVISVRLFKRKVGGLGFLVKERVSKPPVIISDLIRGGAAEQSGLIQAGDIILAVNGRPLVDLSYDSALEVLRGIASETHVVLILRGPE

| pKd | Binder |
| --- | --- |
| 3.6 | B1 |
| 3.5 | B2 |

Target: T3, NHERF3_4, Q5T2W1
Assay: holdup assay
Set-up: key: below the threshold = too weak to quantify, mostly under pKd 3.1 to 4
Conditions: plain residues with an end cap or a label only (N-terminal biotin on a linker: ado-ado)

| pKd | Binder |
| --- | --- |
| below the threshold | B1 |
| 4.91 | B2 |

Target: GORASP2, Q9H8Y8
Assay: holdup assay
Set-up: key: below the threshold = too weak to quantify, mostly under pKd 3.1 to 4
Conditions: plain residues with an end cap or a label only (N-terminal biotin on a linker: ado-ado)

| pKd | Binder |
| --- | --- |
| 4.67 | B1 |
| below the threshold | B2 |

Target: DLG4_1, P78352
Assay: holdup assay
Set-up: key: below the threshold = too weak to quantify, mostly under pKd 3.1 to 4
Conditions: plain residues with an end cap or a label only (N-terminal biotin on a linker: ado-ado)

Chain of DLG4_1, P78352 (P78352 62-152): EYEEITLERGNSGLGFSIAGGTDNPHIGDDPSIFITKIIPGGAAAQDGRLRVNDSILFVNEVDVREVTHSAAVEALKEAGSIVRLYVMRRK

| pKd | Binder |
| --- | --- |
| below the threshold | B1 |
| below the threshold | B2 |

Target: LNX1_3, Q8TBB1
Assay: holdup assay
Set-up: key: below the threshold = too weak to quantify, mostly under pKd 3.1 to 4
Conditions: plain residues with an end cap or a label only (N-terminal biotin on a linker: ado-ado)

Chain of LNX1_3, Q8TBB1 (Q8TBB1 500-596): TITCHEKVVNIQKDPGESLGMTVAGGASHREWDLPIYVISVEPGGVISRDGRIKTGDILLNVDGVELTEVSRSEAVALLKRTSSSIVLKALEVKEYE

| pKd | Binder |
| --- | --- |
| 4.49 | B1 |
| below the threshold | B2 |

Target: T4, SNTB1, Q13884
Assay: holdup assay
Set-up: key: below the threshold = too weak to quantify, mostly under pKd 3.1 to 4
Conditions: plain residues with an end cap or a label only (N-terminal biotin on a linker: ado-ado)

| pKd | Binder |
| --- | --- |
| below the threshold | B1 |
| below the threshold | B2 |

Target: T5, LNX2_3, Q8N448
Assay: holdup assay
Set-up: key: below the threshold = too weak to quantify, mostly under pKd 3.1 to 4
Conditions: plain residues with an end cap or a label only (N-terminal biotin on a linker: ado-ado)

| pKd | Binder |
| --- | --- |
| below the threshold | B1 |
| below the threshold | B2 |

Target: TJP1_3, Q07157
Assay: holdup assay
Set-up: key: below the threshold = too weak to quantify, mostly under pKd 3.1 to 4
Conditions: plain residues with an end cap or a label only (N-terminal biotin on a linker: ado-ado)

Chain of TJP1_3, Q07157 (Q07157 416-512): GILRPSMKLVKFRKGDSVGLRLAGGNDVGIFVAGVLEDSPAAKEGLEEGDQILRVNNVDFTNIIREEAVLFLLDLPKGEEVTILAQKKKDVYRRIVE

| pKd | Binder |
| --- | --- |
| below the threshold | B1 |
| below the threshold | B2 |

Target: T6, MPP6, Q9NZW5
Assay: holdup assay
Set-up: key: below the threshold = too weak to quantify, mostly under pKd 3.1 to 4
Conditions: plain residues with an end cap or a label only (N-terminal biotin on a linker: ado-ado)

| pKd | Binder |
| --- | --- |
| 4.42 | B1 |
| below the threshold | B2 |

Target: T7, MPP2, Q14168
Assay: holdup assay
Set-up: key: below the threshold = too weak to quantify, mostly under pKd 3.1 to 4
Conditions: plain residues with an end cap or a label only (N-terminal biotin on a linker: ado-ado)

| pKd | Binder |
| --- | --- |
| 4.46 | B1 |
| below the threshold | B2 |

Target: T8, DLG3_3, Q92796
Assay: holdup assay
Set-up: key: below the threshold = too weak to quantify, mostly under pKd 3.1 to 4
Conditions: plain residues with an end cap or a label only (N-terminal biotin on a linker: ado-ado)

| pKd | Binder |
| --- | --- |
| below the threshold | B1 |
| below the threshold | B2 |

Target: MAST2, Q6P0Q8
Assay: holdup assay
Set-up: key: below the threshold = too weak to quantify, mostly under pKd 3.1 to 4
Conditions: plain residues with an end cap or a label only (N-terminal biotin on a linker: ado-ado)

Chain of MAST2, Q6P0Q8 (Q6P0Q8 1099-1202): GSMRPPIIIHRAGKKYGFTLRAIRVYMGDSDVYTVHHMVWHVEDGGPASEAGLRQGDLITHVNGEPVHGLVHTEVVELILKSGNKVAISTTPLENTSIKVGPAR

| pKd | Binder |
| --- | --- |
| 4.44 | B1 |
| 5.28 | B2 |

Target: T9, GRIP1_7, Q9Y3R0
Assay: holdup assay
Set-up: key: below the threshold = too weak to quantify, mostly under pKd 3.1 to 4
Conditions: plain residues with an end cap or a label only (N-terminal biotin on a linker: ado-ado)

| pKd | Binder |
| --- | --- |
| 5.06 | B1 |
| below the threshold | B2 |

Target: T10, GRIP1_2, Q9Y3R0
Assay: holdup assay
Set-up: key: below the threshold = too weak to quantify, mostly under pKd 3.1 to 4
Conditions: plain residues with an end cap or a label only (N-terminal biotin on a linker: ado-ado)

| pKd | Binder |
| --- | --- |
| below the threshold | B1 |
| below the threshold | B2 |

Target: T11, GRIP1_3, Q9Y3R0
Assay: holdup assay
Set-up: key: below the threshold = too weak to quantify, mostly under pKd 3.1 to 4
Conditions: plain residues with an end cap or a label only (N-terminal biotin on a linker: ado-ado)

| pKd | Binder |
| --- | --- |
| below the threshold | B1 |
| below the threshold | B2 |

Target: GRID2IP_1, A4D2P6
Assay: holdup assay
Set-up: key: below the threshold = too weak to quantify, mostly under pKd 3.1 to 4
Conditions: plain residues with an end cap or a label only (N-terminal biotin on a linker: ado-ado)

Chain of GRID2IP_1, A4D2P6 (A4D2P6 1-87): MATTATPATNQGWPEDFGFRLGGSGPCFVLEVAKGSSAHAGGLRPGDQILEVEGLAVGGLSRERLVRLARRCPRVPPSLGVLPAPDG

| pKd | Binder |
| --- | --- |
| below the threshold | B1 |
| below the threshold | B2 |

Target: GIPC2, Q8TF65
Assay: holdup assay
Set-up: key: below the threshold = too weak to quantify, mostly under pKd 3.1 to 4
Conditions: plain residues with an end cap or a label only (N-terminal biotin on a linker: ado-ado)

Chain of GIPC2, Q8TF65 (Q8TF65 112-203): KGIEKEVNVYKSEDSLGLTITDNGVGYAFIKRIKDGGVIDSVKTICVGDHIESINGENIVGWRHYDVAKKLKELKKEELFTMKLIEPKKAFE

| pKd | Binder |
| --- | --- |
| below the threshold | B1 |
| below the threshold | B2 |

Target: T12, APBA2_2, Q99767
Assay: holdup assay
Set-up: key: below the threshold = too weak to quantify, mostly under pKd 3.1 to 4
Conditions: plain residues with an end cap or a label only (N-terminal biotin on a linker: ado-ado)

| pKd | Binder |
| --- | --- |
| below the threshold | B1 |
| below the threshold | B2 |

Target: T13, DFNB31_1, Q9P202
Assay: holdup assay
Set-up: key: below the threshold = too weak to quantify, mostly under pKd 3.1 to 4
Conditions: plain residues with an end cap or a label only (N-terminal biotin on a linker: ado-ado)

| pKd | Binder |
| --- | --- |
| below the threshold | B1 |
| below the threshold | B2 |

Target: DLG1_3, Q12959
Assay: holdup assay
Set-up: key: below the threshold = too weak to quantify, mostly under pKd 3.1 to 4
Conditions: plain residues with an end cap or a label only (N-terminal biotin on a linker: ado-ado)

Chain of DLG1_3, Q12959 (Q12959 457-571): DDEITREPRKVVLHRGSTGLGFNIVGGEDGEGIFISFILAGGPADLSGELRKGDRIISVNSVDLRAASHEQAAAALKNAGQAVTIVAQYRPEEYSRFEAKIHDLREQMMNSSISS

| pKd | Binder |
| --- | --- |
| below the threshold | B1 |
| below the threshold | B2 |

Target: IL16_4, Q14005
Assay: holdup assay
Set-up: key: below the threshold = too weak to quantify, mostly under pKd 3.1 to 4
Conditions: plain residues with an end cap or a label only (N-terminal biotin on a linker: ado-ado)

Chain of IL16_4, Q14005 (Q14005 1229-1329): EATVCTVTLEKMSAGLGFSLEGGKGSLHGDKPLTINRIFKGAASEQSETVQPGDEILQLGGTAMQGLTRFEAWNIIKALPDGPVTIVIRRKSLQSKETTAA

| pKd | Binder |
| --- | --- |
| below the threshold | B1 |
| 3.61 | B2 |

Reference: article PMC9482650, “Quantitative fragmentomics allow affinity mapping of interactomes” (Nature Communications, 2022)
